{
  "source": "paper PMC8232796",
  "origin": "cited, not measured here",
  "key": {"[1]": {"target": "Ubiquitin (Homo sapiens) (UniProt P0CG48)"}, "[2]": {"target": "Ubiquitin (Homo sapiens) (UniProt P0CG48)", "remark": "listed apart in the source"}, "[3]": {"target": "Ubiquitin (Homo sapiens) (UniProt P0CG48)", "remark": "listed apart in the source"}, "[4]": {"target": "HIV-1 Gag p6 peptide p6 (Human immunodeficiency virus 1) (UniProt O93182)"}},
  "note": "Read-outs that look alike come from different tables or passages of the source.",
  "data": [
    {"substance": "hMms2 UEV (from UniProt Q15819)", "values": [
      {"measurement": "Kd", "setting": "[1]", "value": 100, "unit": "µM"}
    ]},
    {"substance": "UbcH5 (from UniProt P51668)", "values": [
      {"measurement": "Kd", "setting": "[2]", "value": 300, "unit": "µM"}
    ]},
    {"substance": "Tsg101 UEV UEV (from UniProt Q99816)", "values": [
      {"measurement": "Kd", "setting": "[3]", "value": 500, "unit": "µM"},
      {"measurement": "Kd", "setting": "[4]", "value": 27, "unit": "µM"}
    ]}
  ]
}
